{"source": "patent US20240116985A1", "about": "(published 2024)", "note": "Starred links: 1 amine or outer side, 2 acyl side, 3 side chain; linkers in the order of their positions; H or OH if unused. Positions of bridges follow the written chain, without caps; N, C: chain ends. Non-standard residues stand in square brackets, D forms with d. Primed or numbered codes have the meaning given here. B5(11) = 2,2-bis(4-pentenyl)glycine = 2-amino-2-(pent-4-en-1-yl)hept-6-enoic acid (stitching residue, bears both staples), C=CCCCC(CCCC=C)(N[*:1])C(=O)[*:2]; B5(4) = 2,2-bis(4-pentenyl)glycine = 2-amino-2-(pent-4-en-1-yl)hept-6-enoic acid (stitching residue), C=CCCCC(CCCC=C)(N[*:1])C(=O)[*:2]; B5(14) = 2-amino-2-(pent-4-en-1-yl)hept-6-enoic acid (bis-pentenylglycine), C=CCCCC(CCCC=C)(N[*:1])C(=O)[*:2]; Phe(3-Cl) = N[C@@H](Cc1cccc(Cl)c1)C(=O)O; Phe(4-Cl) = N[C@@H](Cc1ccc(Cl)cc1)C(=O)O; Phe(4-NH2) = Nc1ccc(C[C@H](N)C(=O)O)cc1; Ala(2-furyl) = N[C@@H](Cc1ccco1)C(=O)O; His(τ-Me) = Cn1cnc(C[C@H](N)C(=O)O)c1; αAllylPro = C=CC[C@@]1(C(=O)O)CCCN1; 3Thi = N[C@@H](Cc1ccsc1)C(=O)O; S8 = C=CCCCCCC[C@](C)(N)C(=O)O", "data": [{"molecular_target": "T1, full-length beta-Catenin (Uniprot ID P35222) (Homo sapiens (Human), UniProt P35222 1-781)", "T1 construct": "the AlphaScreen used a Histidine (Nickel Chelate) detection kit, so a His tag is likely but not described; also called B-Catenin; bCat", "T1 sequence": "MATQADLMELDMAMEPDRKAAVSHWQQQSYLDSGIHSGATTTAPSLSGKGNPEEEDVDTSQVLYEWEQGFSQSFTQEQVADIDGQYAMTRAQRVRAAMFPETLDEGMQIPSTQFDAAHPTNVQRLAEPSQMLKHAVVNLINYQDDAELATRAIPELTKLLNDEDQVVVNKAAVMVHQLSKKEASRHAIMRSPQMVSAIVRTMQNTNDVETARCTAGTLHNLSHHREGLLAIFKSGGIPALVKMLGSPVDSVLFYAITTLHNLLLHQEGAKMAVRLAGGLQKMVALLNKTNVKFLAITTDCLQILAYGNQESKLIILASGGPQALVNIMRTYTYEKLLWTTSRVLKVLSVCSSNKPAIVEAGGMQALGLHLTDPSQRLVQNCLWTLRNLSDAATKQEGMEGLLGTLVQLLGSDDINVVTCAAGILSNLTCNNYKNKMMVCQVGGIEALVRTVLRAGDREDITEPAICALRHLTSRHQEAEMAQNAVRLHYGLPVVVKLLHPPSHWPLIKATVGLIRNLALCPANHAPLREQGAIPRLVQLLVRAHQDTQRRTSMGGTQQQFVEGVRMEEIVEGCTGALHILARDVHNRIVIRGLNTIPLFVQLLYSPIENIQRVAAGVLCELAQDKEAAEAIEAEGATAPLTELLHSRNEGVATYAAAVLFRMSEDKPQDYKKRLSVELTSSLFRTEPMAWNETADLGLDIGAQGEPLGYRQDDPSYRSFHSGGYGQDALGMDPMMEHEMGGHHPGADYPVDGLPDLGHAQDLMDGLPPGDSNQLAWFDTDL", "assay": "FP competition vs 5FAM-TCF4(10-53) probe on full-length beta-catenin", "procedure": "The plate was incubated protected from light for 60 minutes at 20° C. prior to read. Reads were performed on a CLARIOstar plate reader (BMG Labtech) in duplicate, and data were fitted to a 1:1 binding model with hill slope using an in-house script. All provided concentrations are final concentrations.", "units": {"EC50": "µM"}, "values": [{"binder": "Ac-[αAllylPro]DA[B5(4)]DHAAFV[S8]FWQ-NH2 (staple 1-4, 4-11, Ac-PL3-Asp-Ala-B5-Asp-His-Ala-Ala-Phe-Val-S8-Phe-Trp-Gln-NH2; stapled peptide composition)", "note": "[I-304]", "EC50": 5}, {"binder": "Ac-[αAllylPro]DA[B5(4)]DHAAFV[S8]FWQ-NH2 (staple 1-4, 4-11, Ac-PL3-Asp-Ala-B5-Asp-His-Ala-Ala-Phe-Val-S8-Phe-Trp-Gln-NH2; stapled peptide composition)", "note": "[I-305]", "EC50": 3.98}, {"binder": "Ac-[αAllylPro]DA[B5(4)]DDAA[His(τ-Me)]V[S8]FWQ-NH2 (staple 1-4, 4-11; not fully specified; printed as Ac-PL3-Asp-Ala-B5-Asp-Asp-Ala-Ala-1meH-Val-S8-Phe-Trp-Gln-NH2, Ac-PL3-Asp-Ala-B5-Asp-Asp-Ala-Ala-1meH-Val-S8-Phe-Trp-Gln-NH2; stapled peptide composition)", "note": "[I-329]", "EC50": 5}, {"binder": "Ac-[αAllylPro]DA[B5(4)]DDAA[His(τ-Me)]V[S8]FWQ-NH2 (staple 1-4, 4-11, Ac-PL3-Asp-Ala-B5-Asp-Asp-Ala-Ala-1meH-Val-S8-Phe-Trp-Gln-NH2; stapled peptide composition)", "note": "[I-330]", "EC50": 5}, {"binder": "Ac-[αAllylPro]DA[B5(14)]DDAAHV[S8]FWQ-NH2 (staple 1-4, 4-11; not fully specified (residue 9), Ac-PL3-Asp-Ala-B5-Asp-Asp-Ala-Ala-3meH-Val-S8-Phe-Trp-Gln-NH2; stapled peptide composition)", "note": "[I-331]", "EC50": 5}, {"binder": "Ac-[αAllylPro]DA[B5(4)]DDAA[Phe(3-Cl)]V[S8]FWQ-NH2 (staple 1-4, 4-11; not fully specified; printed as Ac-PL3-Asp-Ala-B5-Asp-Asp-Ala-Ala-3C1F-Val-S8-Phe-Trp-Gln-NH2, Ac-PL3-Asp-Ala-B5-Asp-Asp-Ala-Ala-3C1F-Val-S8-Phe-Trp-Gln-NH2; stapled peptide composition)", "note": "[I-307]", "EC50": 4.2}, {"binder": "Ac-[αAllylPro]DA[B5(4)]DDAA[Phe(4-Cl)]V[S8]FWQ-NH2 (staple 1-4, 4-11; not fully specified; printed as Ac-PL3-Asp-Ala-B5-Asp-Asp-Ala-Ala-4C1F-Val-S8-Phe-Trp-Gln-NH2, Ac-PL3-Asp-Ala-B5-Asp-Asp-Ala-Ala-4C1F-Val-S8-Phe-Trp-Gln-NH2; stapled peptide composition)", "note": "[I-308]", "EC50": 5}, {"binder": "Ac-[αAllylPro]DA[B5(11)]DDAA[Phe(4-NH2)]V[S8]FWQ-NH2 (staple 1-4, 4-11; not fully specified; printed as Ac-PL3-Asp-Ala-B5-Asp-Asp-Ala-Ala-4AmPhe-Val-S8-Phe-Trp-Gln-NH2, Ac-PL3-Asp-Ala-B5-Asp-Asp-Ala-Ala-4AmPhe-Val-S8-Phe-Trp-Gln-NH2; stapled peptide composition)", "note": "[I-322]", "EC50": 5}, {"binder": "Ac-[αAllylPro]DA[B5(11)]DDAA[Phe(4-NH2)]V[S8]FWQ-NH2 (staple 1-4, 4-11; not fully specified; printed as Ac-PL3-Asp-Ala-B5-Asp-Asp-Ala-Ala-4AmPhe-Val-S8-Phe-Trp-Gln-NH2, Ac-PL3-Asp-Ala-B5-Asp-Asp-Ala-Ala-4AmPhe-Val-S8-Phe-Trp-Gln-NH2; stapled peptide composition)", "note": "[I-323]", "EC50": 3.47}, {"binder": "Ac-[αAllylPro]DA[B5(4)]DDAA[3Thi]V[S8]FWQ-NH2 (staple 1-4, 4-11, Ac-PL3-Asp-Ala-B5-Asp-Asp-Ala-Ala-3Thi-Val-S8-Phe-Trp-Gln-NH2; stapled peptide composition)", "note": "[I-326]", "EC50": 1.75}, {"binder": "Ac-[αAllylPro]DA[B5(4)]DDAA[Ala(2-furyl)]V[S8]FWQ-NH2 (staple 1-4, 4-11; not fully specified; printed as Ac-PL3-Asp-Ala-B5-Asp-Asp-Ala-Ala-2FurA-Val-S8-Phe-Trp-Gln-NH2, Ac-PL3-Asp-Ala-B5-Asp-Asp-Ala-Ala-2FurA-Val-S8-Phe-Trp-Gln-NH2; stapled peptide composition)", "note": "[I-327]", "EC50": 4.72}, {"binder": "Ac-[αAllylPro]DA[B5(4)]DDAA[Ala(2-furyl)]V[S8]FWQ-NH2 (staple 1-4, 4-11; not fully specified; printed as Ac-PL3-Asp-Ala-B5-Asp-Asp-Ala-Ala-2FurA-Val-S8-Phe-Trp-Gln-NH2, Ac-PL3-Asp-Ala-B5-Asp-Asp-Ala-Ala-2FurA-Val-S8-Phe-Trp-Gln-NH2; stapled peptide composition)", "note": "[I-328]", "EC50": 1.91}]}]}
